Experimental data: US20040220384A1 (Takeda / Millennium, published 2004)
Non-standard residues stand in square brackets, D forms with d. No end group written: not given here. Trp(6-Br) = N[C@@H](Cc1c[nH]c2cc(Br)ccc12)C(=O)O; dTrp(6-Br) = N[C@H](Cc1c[nH]c2cc(Br)ccc12)C(=O)O

T1: human GPR7 (human, UniProt P48145 1-328)
T1 construct: Expressed in CHO cells; also called CHO-GPR7 (cells)
T1 sequence: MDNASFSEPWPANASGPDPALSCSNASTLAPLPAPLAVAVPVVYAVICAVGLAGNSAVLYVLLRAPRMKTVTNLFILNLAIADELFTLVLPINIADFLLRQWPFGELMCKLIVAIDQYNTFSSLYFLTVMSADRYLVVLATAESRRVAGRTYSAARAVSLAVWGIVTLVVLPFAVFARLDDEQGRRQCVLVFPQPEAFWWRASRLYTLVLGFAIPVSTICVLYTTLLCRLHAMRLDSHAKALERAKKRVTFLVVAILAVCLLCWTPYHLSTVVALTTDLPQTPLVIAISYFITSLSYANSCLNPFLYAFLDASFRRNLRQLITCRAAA

T2: rat GPR7 (rat TGR26) (rat, UniProt Q56UD9 1-329)
T2 sequence: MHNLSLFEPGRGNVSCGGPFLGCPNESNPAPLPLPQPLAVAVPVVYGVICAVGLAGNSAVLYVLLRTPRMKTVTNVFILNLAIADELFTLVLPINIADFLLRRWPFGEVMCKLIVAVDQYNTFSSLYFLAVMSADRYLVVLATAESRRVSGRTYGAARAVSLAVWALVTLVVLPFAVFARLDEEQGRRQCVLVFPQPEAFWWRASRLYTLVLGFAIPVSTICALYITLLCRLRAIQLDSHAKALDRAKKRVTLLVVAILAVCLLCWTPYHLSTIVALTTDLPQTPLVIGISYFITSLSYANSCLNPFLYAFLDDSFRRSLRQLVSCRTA

T3: bovine GPR7 (bovine, UniProt Q8MJV3 1-331)
T3 sequence: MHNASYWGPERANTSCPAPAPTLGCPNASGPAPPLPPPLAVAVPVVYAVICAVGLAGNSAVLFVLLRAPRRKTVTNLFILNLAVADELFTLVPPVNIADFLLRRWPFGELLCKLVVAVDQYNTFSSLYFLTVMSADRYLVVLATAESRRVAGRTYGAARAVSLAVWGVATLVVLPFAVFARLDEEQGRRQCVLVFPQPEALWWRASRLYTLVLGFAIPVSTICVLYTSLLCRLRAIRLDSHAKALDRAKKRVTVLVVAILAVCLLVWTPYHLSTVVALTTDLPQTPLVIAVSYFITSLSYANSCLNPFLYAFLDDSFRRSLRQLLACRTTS

T4: bovine GPR8 (bovine, UniProt Q8MJV2 1-336)
T4 sequence: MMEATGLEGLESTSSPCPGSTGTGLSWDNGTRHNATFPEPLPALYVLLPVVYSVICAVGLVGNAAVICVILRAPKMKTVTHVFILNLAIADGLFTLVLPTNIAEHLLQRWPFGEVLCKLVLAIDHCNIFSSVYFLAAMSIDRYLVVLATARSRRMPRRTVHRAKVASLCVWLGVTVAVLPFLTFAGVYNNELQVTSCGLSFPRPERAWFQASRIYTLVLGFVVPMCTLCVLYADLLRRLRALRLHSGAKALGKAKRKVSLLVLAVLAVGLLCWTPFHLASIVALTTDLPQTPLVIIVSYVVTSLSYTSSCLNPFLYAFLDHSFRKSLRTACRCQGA

B1: Trp1-bovine GPR7L(29) (peptide)
peptide: WYKPTAGQGYYSVGRAAGLLSGFHRSPYA
notes: also called bovine GPR7 ligand B; non-brominated GPR7L

Tests used:
human GPR7 [1] = molecular target: T1, human GPR7; assay: binding inhibition of iodine-labeled hGPR7L-23 on human GPR7-expressed CHO cell membrane fraction
Protocol: The peptides shown in TABLE 3 are those obtained by diluting the stock solution of […] or 10⁻³ M with the assay buffer in 10⁻⁵ M, 10⁻⁶ M, 10⁻⁷ M, 10⁻⁸ M, 10⁻⁹ M, 10⁻¹⁰ M and 10⁻¹¹ M. As NBS, hGPR7L-23 was prepared in a final concentration of 10⁻⁵ M. The sample solution and NSB prepared were dispensed on a polypropylene-made 96-well plate, the assay buffer was dispensed thereto to make the total volume 50 μl, and 25 μl of the iodine-labeled product dilution was added thereto. After agitation, 25 μl of the solution of human GPR7-expressed CHO cell membrane fraction were dispensed thereto and agitated, followed by incubation at room temperature for 1.5 hour. Using a cell harvester for the 96-well plate, the culture medium was adsorbed onto a filter unit, which had previously been wetted with an assay buffer (50 mM Tris-HCl, pH7.5). After washing 5 times with the assay buffer, the filter unit was thoroughly dried. After 50 μl of a liquid scintillator was dispensed thereto, the radioactivity was counted on a Top Count (Packard) and the data was analyzed in triplet (FIG. 33).

rat GPR7 (rat TGR26) = molecular target: T2, rat GPR7 (rat TGR26); assay: cell-based or functional assay
human GPR7 [2] = molecular target: T1, human GPR7; assay: cell-based or functional assay
human GPR8 = human GPR8 (human, UniProt P48146 1-333); assay: cell-based or functional assay
Sequence of human GPR8 (P48146 whole entry): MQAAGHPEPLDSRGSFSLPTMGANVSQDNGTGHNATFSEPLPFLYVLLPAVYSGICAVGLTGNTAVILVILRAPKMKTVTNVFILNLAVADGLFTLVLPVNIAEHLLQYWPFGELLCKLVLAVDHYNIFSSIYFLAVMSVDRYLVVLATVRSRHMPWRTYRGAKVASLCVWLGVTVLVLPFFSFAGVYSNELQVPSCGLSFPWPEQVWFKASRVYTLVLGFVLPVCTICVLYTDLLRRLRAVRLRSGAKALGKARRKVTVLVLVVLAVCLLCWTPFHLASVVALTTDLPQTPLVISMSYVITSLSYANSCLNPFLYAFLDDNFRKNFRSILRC

bovine GPR7 = molecular target: T3, bovine GPR7; assay: cell-based or functional assay
bovine GPR8 = molecular target: T4, bovine GPR8; assay: cell-based or functional assay

Row | Binder | IC50 (human GPR7 [1]) | IC50 of intracellular cAMP production suppression (cAMP production inhibition rate) (rat GPR7 (rat TGR26)) | IC50 of intracellular cAMP production suppression (cAMP production inhibition rate) (human GPR7 [2]) | IC50 of intracellular cAMP production suppression (cAMP production inhibition rate) (human GPR8) | IC50 of intracellular cAMP production suppression (cAMP production inhibition rate) (bovine GPR7) | IC50 of intracellular cAMP production suppression (cAMP production inhibition rate) (bovine GPR8)
1 | [Trp(6-Br)]YKPAAGHSSYSVGRAAGLLSGLRRSPYA [LTrp(6Br)1-human GPR7L(29)] | 0.32 nM | 0.47 nM | 0.44 nM | 32 nM | 1.8 nM | 51 nM
2 | WYKPAAGHSSYSVGRAAGLLSGL [Trp1-human GPR7L(23)] |  |  | 0.58 nM |  |  | 
3 | WYKPAAGSHHYSVGRAAGLLSSFH (also called rat GPR7 ligand A) [Trp1-rat GPR7L(24)] | 0.3 nM | 0.18 nM | 0.31 nM | 2.8 nM | 0.51 nM | 3.5 nM
4 | [dTrp(6-Br)]YKPTAGQGYYSVGRAAGLLSGFHRSPYA [DTrp(6Br)1-bovine GPR7L(29)] | 6.1 nM | 2.5 nM | 35 nM | 198 nM | 77 nM | 34 nM
5 | B1 | 0.31 nM | 0.25 nM | 0.43 nM | 8.1 nM | 1.2 nM | 5.4 nM
6 | [dTrp(6-Br)]YKPAAGHSSYSVGRAAGLLSGLRRSPYA [DTrp(6Br)1-human GPR7L(29)] | 13 nM | 49 nM | 106 nM | 770 nM | 360 nM | 424 nM
7 | WYKPAAGSHHYSVGRAAGLLSSFHRFPST (also called rat GPR7 ligand B) [Trp1-rat GPR7L(29)] | 0.34 nM | 0.3 nM | 0.86 nM | 8.8 nM | 1.2 nM | 14 nM
8 | [Trp(6-Br)]YKPTAGQGYYSVGRAAGLLSGFHRSPYA [LTrp(6Br)1-bovine GPR7L(29)] | 0.34 nM | 0.21 nM | 0.58 nM | 9.7 nM | 1.9 nM | 4 nM
